Measured values published in patent US20220298215A1.

Biological target: glucagon-like peptide 1 (GLP-1) receptor
Test: cell-based or functional assay

glucagon-like peptide 1 (GLP-1) receptor, sequence (P43220 24-463): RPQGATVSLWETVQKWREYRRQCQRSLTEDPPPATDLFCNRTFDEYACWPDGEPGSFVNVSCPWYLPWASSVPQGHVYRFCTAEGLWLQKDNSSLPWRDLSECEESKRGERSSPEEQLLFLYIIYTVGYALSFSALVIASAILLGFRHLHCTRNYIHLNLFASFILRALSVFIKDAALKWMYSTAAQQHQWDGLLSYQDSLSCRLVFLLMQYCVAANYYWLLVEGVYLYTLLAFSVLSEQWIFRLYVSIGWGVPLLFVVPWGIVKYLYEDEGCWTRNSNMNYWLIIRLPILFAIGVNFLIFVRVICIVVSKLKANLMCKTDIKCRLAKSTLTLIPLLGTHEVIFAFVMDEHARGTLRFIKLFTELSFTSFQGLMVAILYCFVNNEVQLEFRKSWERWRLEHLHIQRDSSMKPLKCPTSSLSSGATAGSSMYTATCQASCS

Dulaglutide (Fc fusion)
EC50, CRE-luciferase reporter in HEK293-GLP1R-CRE-Luc cells: 0.0237 nM
